B7: SgK269-αN1-PsK-Cter (WT) (domain or fragment, human, UniProt Q9H792 1267-1746, looked up)
chain: GIQKPQRQALYRGLENREEVVGKIRSLHTDALKKLAVKCEDLFMAGQKDQLRFGVDSWSDFRLTSDKPCCEAGDAVYYTASYAKDPLNNYAVKICKSKAKESQQYYHSLAVRQSLAVHFNIQQDCGHFLAEVPNRLLPWEDPDDPEKDEDDMEETEEDAKGETDGKNPKPCSEAASSQKENQGVMSKKQRSHVVVITREVPCLTVADFVRDSLAQHGKSPDLYERQVCLLLLQLCSGLEHLKPYHVTHCDLRLENLLLVHYQPGGTAQGFGPAEPSPTSSYPTRLIVSNFSQAKQKSHLVDPEILRDQSRLAPEIITATQYKKCDEFQTGILIYEMLHLPNPFDENPELKEREYTRADLPRIPFRSPYSRGLQQLASCLLNPNPSERILISDAKGILQCLLWGPREDLFQTFTACPSLVQRNTLLQNWLDIKRTLLMIKFAEKSLDREGGISLEDWLCAQYLAFATTDSLSCIVKILQHR
notes: SgK269 (PEAK1), human, residues 1267-1746: αN1 helix, pseudokinase domain and C-terminal helices; also called SgK269-WT (αN1-PsK-Cter); SgK269-WT; source: E. coli C41(DE3), purified (Ni-NTA, SEC)
B8: His tag cleaved SgK269-αN1-PsK-Cter F1609A (domain or fragment, human, UniProt Q9H792 1267-1746, looked up)
chain: GIQKPQRQALYRGLENREEVVGKIRSLHTDALKKLAVKCEDLFMAGQKDQLRFGVDSWSDFRLTSDKPCCEAGDAVYYTASYAKDPLNNYAVKICKSKAKESQQYYHSLAVRQSLAVHFNIQQDCGHFLAEVPNRLLPWEDPDDPEKDEDDMEETEEDAKGETDGKNPKPCSEAASSQKENQGVMSKKQRSHVVVITREVPCLTVADFVRDSLAQHGKSPDLYERQVCLLLLQLCSGLEHLKPYHVTHCDLRLENLLLVHYQPGGTAQGFGPAEPSPTSSYPTRLIVSNFSQAKQKSHLVDPEILRDQSRLAPEIITATQYKKCDEFQTGILIYEMLHLPNPADENPELKEREYTRADLPRIPFRSPYSRGLQQLASCLLNPNPSERILISDAKGILQCLLWGPREDLFQTFTACPSLVQRNTLLQNWLDIKRTLLMIKFAEKSLDREGGISLEDWLCAQYLAFATTDSLSCIVKILQHR
notes: SgK269 (PEAK1), human, residues 1267-1746; also called SgK269-αN1-PsK-Cter Phe1609Ala; source: E. coli C41(DE3), purified (Ni-NTA, SEC); not shown: His tag, N-terminal, cleaved

Assays:
[1] = target: the molecule itself; experiment: AUC; sedimentation velocity, WT and mutants each at 3.0 μM; 20 mM Tris-HCl, 150 mM NaCl, pH 8.0, 20 °C
[2] = target: the molecule itself; experiment: AUC; sedimentation velocity at 0.6, 1.2 and 2.3 μM; 20 mM Tris-HCl, 150 mM NaCl, pH 8.0, 20 °C; dimer to monomers
SgK269-αN1-PsK-Cter (WT) = target: B7; experiment: SEC; SgK223 and SgK269 proteins mixed equimolar at 29.06 μM, 15 min on ice; Superdex 200 Increase 10/300 GL; 20 mM Tris pH 8.5, 200 mM NaCl, 5% glycerol, 1 mM TCEP; preformed homodimers mixed; conditions: both partners purified
[3] = target: the molecule itself; experiment: SAXS; inline gel filtration (Superdex 200 5/150); 20 mM Tris pH 8.5, 200 mM NaCl, 1 mM TCEP, 5% glycerol, 12 °C; WT injected at 2.2 mg/ml, I1243A at 3.5 mg/ml
[4] = target: the molecule itself; experiment: AUC; sedimentation velocity, WT and oligomer-interface mutants each at 20 μM; 20 mM Tris-HCl, 150 mM NaCl, pH 8.0, 20 °C
[5] = target: B8; experiment: anion exchange chromatography (Mono Q); the two αG mutants mixed equimolar at 20 μM, overnight on ice, diluted five times, Mono Q 5/50 GL, linear NaCl gradient, 20 mM Tris pH 8.5; peaks analysed by SDS-PAGE; conditions: both partners purified
[6] = target: the molecule itself; experiment: SEC; peaks from the Mono Q column on Superdex 200 Increase 10/300 GL; 20 mM Tris pH 8.5, 200 mM NaCl, 1 mM TCEP

B1: SgK223-αN1-PsK-Cter F974A (domain or fragment, human, UniProt Q86YV5 932-1406, looked up)
chain: GSTQLQLHGLLSNISSKEGTYAKLGGLYTQSLARLVAKCEDLAMGGQKKELHFNENNWSLFKLTCNKPCCDSGDAIYYCATCSEDPGSTYAVKICKAPEPKTVSYCSPSVPVHFNIQQDCGHFVASVPSSMLSSPDAPKDPVPALPTHPPAQEQDCVVVITREVPHQTASDFVRDSAASHQAEPEAYERRVCFLLLQLCNGLEHLKEHGIIHRDLCLENLLLVHCTLQAGPGPAPAPAPAPAPAAAAPPCSSAAPPAGGTLSPAAGPASPEGPREKQLPRLIISNFLKAKQKPGGTPNLQQKKSQARLAPEIVSASQYRKFDEFQTGILIYELLHQPNPFEVRAQLRERDYRQEDLPPLPALSLYSPGLQQLAHLLLEADPIKRIRIGEAKRVLQCLLWGPRRELVQQPGTSEEALCGTLHNWIDMKRALMMMKFAEKAVDRRRGVELEDWLCCQYLASAEPGALLQSLKLLQLL
notes: SgK223 (Pragmin), human, residues 932-1406; source: E. coli C41(DE3), purified (Ni-NTA, SEC)
B1: binds [1].

B2: SgK223-αN1-PsK-Cter W1354A (domain or fragment, human, UniProt Q86YV5 932-1406, looked up)
chain: GSTQLQLHGLLSNISSKEGTYAKLGGLYTQSLARLVAKCEDLFMGGQKKELHFNENNWSLFKLTCNKPCCDSGDAIYYCATCSEDPGSTYAVKICKAPEPKTVSYCSPSVPVHFNIQQDCGHFVASVPSSMLSSPDAPKDPVPALPTHPPAQEQDCVVVITREVPHQTASDFVRDSAASHQAEPEAYERRVCFLLLQLCNGLEHLKEHGIIHRDLCLENLLLVHCTLQAGPGPAPAPAPAPAPAAAAPPCSSAAPPAGGTLSPAAGPASPEGPREKQLPRLIISNFLKAKQKPGGTPNLQQKKSQARLAPEIVSASQYRKFDEFQTGILIYELLHQPNPFEVRAQLRERDYRQEDLPPLPALSLYSPGLQQLAHLLLEADPIKRIRIGEAKRVLQCLLWGPRRELVQQPGTSEEALCGTLHNAIDMKRALMMMKFAEKAVDRRRGVELEDWLCCQYLASAEPGALLQSLKLLQLL
notes: SgK223 (Pragmin), human, residues 932-1406; also called alanine mutation of Trp1354; source: E. coli C41(DE3), purified (Ni-NTA, SEC)
B2: binds [1].

B3: SgK223-αN1-PsK-Cter (WT) (domain or fragment, human, UniProt Q86YV5 932-1406, looked up)
chain: GSTQLQLHGLLSNISSKEGTYAKLGGLYTQSLARLVAKCEDLFMGGQKKELHFNENNWSLFKLTCNKPCCDSGDAIYYCATCSEDPGSTYAVKICKAPEPKTVSYCSPSVPVHFNIQQDCGHFVASVPSSMLSSPDAPKDPVPALPTHPPAQEQDCVVVITREVPHQTASDFVRDSAASHQAEPEAYERRVCFLLLQLCNGLEHLKEHGIIHRDLCLENLLLVHCTLQAGPGPAPAPAPAPAPAAAAPPCSSAAPPAGGTLSPAAGPASPEGPREKQLPRLIISNFLKAKQKPGGTPNLQQKKSQARLAPEIVSASQYRKFDEFQTGILIYELLHQPNPFEVRAQLRERDYRQEDLPPLPALSLYSPGLQQLAHLLLEADPIKRIRIGEAKRVLQCLLWGPRRELVQQPGTSEEALCGTLHNWIDMKRALMMMKFAEKAVDRRRGVELEDWLCCQYLASAEPGALLQSLKLLQLL
notes: SgK223 (Pragmin), human, residues 932-1406: αN1 helix, pseudokinase domain and C-terminal helices; Modified pCOLD IV vector with an N-terminal His TEV cleavage tag; Monomer MW printed as 54 kDa; A seleno-methionine form was also crystallised; also called WT-SgK223-αN1-PsK-Cter; SgK223-WT (αN1-PsK-Cter); source: E. coli C41(DE3), purified (Ni-NTA, SEC)
In the case of B3, the “stoichiometry N” value [2] is reported as 2 and the binding result (SgK269-αN1-PsK-Cter (WT)) is reported as “binds”.

B4: SgK223 αN1-PsK-Cter I1243A (domain or fragment, human, UniProt Q86YV5 932-1406, looked up)
chain: GSTQLQLHGLLSNISSKEGTYAKLGGLYTQSLARLVAKCEDLFMGGQKKELHFNENNWSLFKLTCNKPCCDSGDAIYYCATCSEDPGSTYAVKICKAPEPKTVSYCSPSVPVHFNIQQDCGHFVASVPSSMLSSPDAPKDPVPALPTHPPAQEQDCVVVITREVPHQTASDFVRDSAASHQAEPEAYERRVCFLLLQLCNGLEHLKEHGIIHRDLCLENLLLVHCTLQAGPGPAPAPAPAPAPAAAAPPCSSAAPPAGGTLSPAAGPASPEGPREKQLPRLIISNFLKAKQKPGGTPNLQQKKSQARLAPEAVSASQYRKFDEFQTGILIYELLHQPNPFEVRAQLRERDYRQEDLPPLPALSLYSPGLQQLAHLLLEADPIKRIRIGEAKRVLQCLLWGPRRELVQQPGTSEEALCGTLHNWIDMKRALMMMKFAEKAVDRRRGVELEDWLCCQYLASAEPGALLQSLKLLQLL
notes: as for B1
For B4, the “stoichiometry N” value [3] was 2.

B5: SgK223-αN1-PsK-Cter F1271A (domain or fragment, human, UniProt Q86YV5 932-1406, looked up)
chain: GSTQLQLHGLLSNISSKEGTYAKLGGLYTQSLARLVAKCEDLFMGGQKKELHFNENNWSLFKLTCNKPCCDSGDAIYYCATCSEDPGSTYAVKICKAPEPKTVSYCSPSVPVHFNIQQDCGHFVASVPSSMLSSPDAPKDPVPALPTHPPAQEQDCVVVITREVPHQTASDFVRDSAASHQAEPEAYERRVCFLLLQLCNGLEHLKEHGIIHRDLCLENLLLVHCTLQAGPGPAPAPAPAPAPAAAAPPCSSAAPPAGGTLSPAAGPASPEGPREKQLPRLIISNFLKAKQKPGGTPNLQQKKSQARLAPEIVSASQYRKFDEFQTGILIYELLHQPNPAEVRAQLRERDYRQEDLPPLPALSLYSPGLQQLAHLLLEADPIKRIRIGEAKRVLQCLLWGPRRELVQQPGTSEEALCGTLHNWIDMKRALMMMKFAEKAVDRRRGVELEDWLCCQYLASAEPGALLQSLKLLQLL
notes: SgK223 (Pragmin), human, residues 932-1406; also called SgK223-αN1-PsK-Cter Phe1271Ala; His-SgK223-αN1-PsK-Cter; source: E. coli C41(DE3), purified (Ni-NTA, SEC); not shown: His tag, N-terminal, kept
With B5 the “stoichiometry N” value [4] was 2 and the binding result [5] was “binds”.

B6: SgK223-αN1-PsK-Cter Y1282A (domain or fragment, human, UniProt Q86YV5 932-1406, looked up)
chain: GSTQLQLHGLLSNISSKEGTYAKLGGLYTQSLARLVAKCEDLFMGGQKKELHFNENNWSLFKLTCNKPCCDSGDAIYYCATCSEDPGSTYAVKICKAPEPKTVSYCSPSVPVHFNIQQDCGHFVASVPSSMLSSPDAPKDPVPALPTHPPAQEQDCVVVITREVPHQTASDFVRDSAASHQAEPEAYERRVCFLLLQLCNGLEHLKEHGIIHRDLCLENLLLVHCTLQAGPGPAPAPAPAPAPAAAAPPCSSAAPPAGGTLSPAAGPASPEGPREKQLPRLIISNFLKAKQKPGGTPNLQQKKSQARLAPEIVSASQYRKFDEFQTGILIYELLHQPNPFEVRAQLRERDARQEDLPPLPALSLYSPGLQQLAHLLLEADPIKRIRIGEAKRVLQCLLWGPRRELVQQPGTSEEALCGTLHNWIDMKRALMMMKFAEKAVDRRRGVELEDWLCCQYLASAEPGALLQSLKLLQLL
notes: as for B1
B6 was tested, and the “stoichiometry N” value [4] was 2.

B7: binds [4].

With B8 the “stoichiometry N” value [6] was 2.

— article PMC5660093, “Structure of SgK223 pseudokinase reveals novel mechanisms of homotypic and heterotypic association” (Nature Communications, 2017)
